Four molecules from patent publication US20150259425A1 (AbbVie / Abbott, published 2015) can be followed below.

In test [1] the target is T1, recombinant human CD16a (human, UniProt P08637 17-208, limits assumed).
T1 construct: Recombinant human CD16a solution used in the AlphaScreen assay; also called CD16a receptor; human CD16a receptor
The experiment in a line: AlphaScreen, recombinant human CD16a; high glycine batch against control batch. Here is the method:
(§1) A CD16a binding assay was performed using AlphaScreen (PerkinElmer) method to assess the binding potency of the antibody Fc region of four different antibodies to human CD16a receptor. The antibody solution was first mixed with a recombinant human CD16a solution and assay buffer, and then Alphascreen donor beads and antibody acceptor beads were added. The mixture was incubated in a light protected location for 4 hours at room temperature and the fluorescent signal was detected using a plate reader with laser excitation at 680 nm and light emission 520-620 nm. The binding potency relative to the antibody reference cultured in a basal medium without excess glycine was reported.
In general terms: Bead proximity is the source of the signal in Alpha formats.

The target in test [2] is T1, recombinant human CD16a. Description: AlphaScreen, recombinant human CD16a in solution; batch: 2 L control medium. On the procedure:
as §1

For test [3], the target named is T1, recombinant human CD16a. The experiment in a line: AlphaScreen, recombinant human CD16a in solution; batch: 250 L control medium. On the procedure:
as §1

The target in test [4] is T1, recombinant human CD16a. Description: AlphaScreen, recombinant human CD16a in solution; batch: 2 L with extra glycine. On the procedure:
as §1

Test [5] has as its target T1, recombinant human CD16a. The experiment in a line: AlphaScreen, recombinant human CD16a in solution; batch: 100 L with extra glycine. Here is the method: as §1
Test [6] concerns the target T1, recombinant human CD16a. The experiment in a line: AlphaScreen, recombinant human CD16a in solution; batch: 1 kL control medium. Here is the method:
as §1

Test [7] addresses T1, recombinant human CD16a. Description: AlphaScreen, recombinant human CD16a in solution; batch: 1 kL with extra glycine. On the procedure:
as §1

Test [8] addresses T1, recombinant human CD16a. The experiment in a line: AlphaScreen, recombinant human CD16a in solution; batch: 1 kL control (GMP). On the procedure:
as §1

The target in test [9] is T1, recombinant human CD16a. The experiment in a line: AlphaScreen, recombinant human CD16a in solution; batch: 100 L control medium. Here is the method: as §1
Test [10] deals with T1, recombinant human CD16a. Description: AlphaScreen, recombinant human CD16a in solution; batch: 50 L with extra glycine. On the procedure:
as §1

Test [11] addresses T1, recombinant human CD16a. The experiment in a line: AlphaScreen, recombinant human CD16a in solution; dose response study, batch: 2 L control (2 mM glycine). Here is the method:
as §1

Test [12] addresses T1, recombinant human CD16a. Description: AlphaScreen, recombinant human CD16a in solution; dose response study, batch: 2 L with extra 5 mM glycine. On the procedure: as §1
Test [13] concerns the target T1, recombinant human CD16a. The experiment in a line: AlphaScreen, recombinant human CD16a in solution; dose response study, batch: 2 L with extra 15 mM glycine. On the procedure: as §1
Test [14] deals with T1, recombinant human CD16a. Description: AlphaScreen, recombinant human CD16a in solution; dose response study, batch: 2 L with extra 30 mM glycine. On the procedure: as §1

B1: PDL241 (antibody, human IgG1, kappa)
heavy: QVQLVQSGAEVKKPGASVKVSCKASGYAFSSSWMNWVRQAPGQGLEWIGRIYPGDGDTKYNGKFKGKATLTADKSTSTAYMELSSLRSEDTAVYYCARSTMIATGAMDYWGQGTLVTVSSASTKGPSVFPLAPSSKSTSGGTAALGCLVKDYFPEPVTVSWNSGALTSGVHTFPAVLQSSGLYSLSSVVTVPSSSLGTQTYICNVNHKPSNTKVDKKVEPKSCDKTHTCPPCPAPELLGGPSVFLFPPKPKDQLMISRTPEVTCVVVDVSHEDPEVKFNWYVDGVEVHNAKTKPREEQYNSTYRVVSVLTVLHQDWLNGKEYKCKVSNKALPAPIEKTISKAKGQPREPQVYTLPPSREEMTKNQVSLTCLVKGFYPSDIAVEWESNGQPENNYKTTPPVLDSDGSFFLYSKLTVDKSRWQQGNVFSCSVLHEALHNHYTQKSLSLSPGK
light: DIQMTQSPSSLSASVGDRVTITCKASQDVSTAVAWYQQKPGKAPKLLIYSASYRYTGVPDRFTGSGSGTDFTLTISSLQPEDFATYYCQQHYSTPPYTFGGGTKVEIKRTVAAPSVFIFPPSDEQLKSGTASVVCLLNNFYPREAKVQWKVDNALQSGNSQESVTEQDSKDSTYSLSSTLTLSKADYEKHKVYACEVTHQGLSSPVTKSFNRGEC
modifications: N-linked glycans; the share of non-fucosylated glycoforms differs between batches
notes: Humanized IgG1 to CS1, made in NS0 cells; Batches differ only in glycoforms
For the molecule B1, in test [1], the “increase in binding affinity relative to the control antibody (basal medium, 2 mM glycine)” value was 40 % increase. In addition, the “CD16a Binding Relative to Reference” value in [2] was determined as 147%; in [3], 100%; in [4] it was 277%; in test [5] it was 137%.

B2: daclizumab (antibody, human IgG1, kappa)
heavy: not shown
light: DIQMTQSPSTLSASVGDRVTITCSASSSISYMHWYQQKPGKAPKLLIYTTSNLASGVPARFSGSGSGTEFTLTISSLQPDDFATYYCHQRSTYPLTFGSGTKVEVKRTVAAPSVFIFPPSDEQLKSGTASVVCLLNNFYPREAKVQWKVDNALQSGNSQESVTEQDSKDSTYSLSSTLTLSKADYEKHKVYACEVTHQGLSSPVTKSFNR
modifications: N-linked glycans; the share of non-fucosylated glycoforms differs between batches
notes: Humanized IgG1 to CD25, made in NS0 cells; the entries may be incomplete; also called DAC HYP
With B2, the “increase in binding affinity relative to the control antibody (basal medium, 2 mM glycine)” value in [1] is 40 % increase. Besides, the results for the “CD16a Binding Relative to Reference” value in test [2] and in [4] were 69% and 137%, respectively.

B3: elotuzumab (antibody, human IgG1, kappa)
heavy: not shown
light: DIQMTQSPSSLSASVGDRVTITCKASQDVGIAVAWYQQKPGKVPKLLIYWASTRHTGVPDRFSGSGSGTDFTLTISSLQPEDVATYYCQQYSSYPYTFGQGTKVEIKRTVAAPSVFIFPPSDEQLKSGTASVVCLLNNFYPREAKVQWKVDNALQSGNSQESVTEQDSKDSTYSLSSTLTLSKADYEKHKVYACEVTHQGLSSPVTKSFNRGEC
modifications: N-linked glycans; the share of non-fucosylated glycoforms differs between batches (control vs high glycine medium)
notes: IgG1 made in NS0 cells; also called HuLuc63; HuLuc 63
With B3, the “increase in binding affinity relative to the control antibody (basal medium, 2 mM glycine)” value in test [1] worked out at 40 % increase. For the same molecule, the results for the “CD16a Binding Relative to Reference” value in test [6], in test [7] and in test [5] were 100%, 146% and 128%, respectively.

B4: enavatuzumab (antibody, human IgG1, kappa)
heavy: not shown
light: DIQMTQSPSSLSASVGDRVTITCRASQSVSTSSYSYMHWYQQKPGKAPKLLIKYASNLESGVPSRFSGSGSGTDFTLTISSLQPEDFATYYCQHSWEIPYTFGGGTKVEIKRTVAAPSVFIFPPSDEQLKSGTASVVCLLNNFYPREAKVQWKVDNALQSGNSQESVTEQDSKDSTYSLSSTLTLSKADYEKHKVYACEVTHQGLSSPVTKSFNRGEC
modifications: N-linked glycans; the share of non-fucosylated glycoforms differs between batches
notes: Humanized IgG1 to TweakR, made in NS0 cells; Batches differ only in glycoforms; also called PDL192
In the case of B4, in test [1], the “increase in binding affinity relative to the control antibody (basal medium, 2 mM glycine)” value worked out at 40 % increase. Also, the “CD16a Binding Relative to Reference” value was 65% in test [8]; 96% in test [6]; 110% in test [9]; 136% in [10]; 130 relative to Reference (no unit printed; percent as in Table 15) in test [11]; 146 relative to Reference (no unit printed; percent as in Table 15) in [12]. Besides, the “CD16a Binding Relative to Reference” value in [13] is 151 relative to Reference (no unit printed; percent as in Table 15); in test [14] it was 144 relative to Reference (no unit printed; percent as in Table 15).
